Measurements: PMC6044470

Target: Chaetomium thermophilum Cdc48 (Chaetomium thermophilum)
Assay: cryo-EM structure

| stoichiometry N | Substance |
| --- | --- |
| 6 | Chaetomium thermophilum Cdc48 (enzyme) |
| 1 | Ufd1/Npl4 heterodimer (UN) from Chaetomium thermophilum (complex) |
